Source: US20240325499A1, “FGF21 COMPOUND / GLP-1R AGONIST COMBINATIONS WITH OPTIMIZED ACTIVITY RATIO” (SANOFI, priority 2018, published 2024)

Biological target: human FGFR1c (FGF receptor 1c isoform) together with human beta-Klotho (KLB) (human) (UniProt P11362)
Test: cell-based or functional assay

Chain of mature human wild-type FGF21, FGF21(His29-Ser209) (Q9NSA1 29-209 L174P): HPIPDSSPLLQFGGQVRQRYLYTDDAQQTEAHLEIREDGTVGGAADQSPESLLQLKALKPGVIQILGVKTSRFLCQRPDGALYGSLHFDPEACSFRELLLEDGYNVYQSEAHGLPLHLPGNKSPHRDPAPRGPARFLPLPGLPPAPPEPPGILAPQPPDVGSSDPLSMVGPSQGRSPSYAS

pERK ICW EC50 (nmol/L): 0.18 nmol/L
pFGFR ICW EC50 (nmol/L): 4.8 nmol/L
Substance: mature human wild-type FGF21, FGF21(His29-Ser209) (from UniProt Q9NSA1 29-209) (ligand)
